Data reported in IntAct's records for PubMed 24140345.

B1: Serine/threonine-protein kinase RIM15 (Saccharomyces cerevisiae), P43565 (parent)
chain: MFNRSNTAGGSQAMKEGLGINKLSPISSNSNPSSLTSSNYEKYLQLATEKNPCMILELELDGKVRYGSPQWNTITGVADDSGSSPTYIADLILGSDQDKGVFQKATDMLLMNDDTSCTITFKIKAADYEGSAGCDDESTITTLEARGILIRDGHTQLPSHTMWIVKPRTNDWSDFYANEDAQDDMVIQLSDNCDDIDIQLPEEFAKTLGFGAKIFVQYLKRIRLEMIIDEFNLPLPKMELCRVCENFVPVWWLETHSQSCVCEHRTESLIQLLHDNLLEQQAILANFTKDSEYKGSQIQVRSNNFLNQVLDSLRELCQDAIDINPSEMVPDLYHSLSTFPQDNGNNNNNNNNNNNNNNALLDQFPIQKDTVSLNSYFQFSPRTNHNIQNVTSWQSRFFLNDDQDPGLALLIHDTLDLARKKVDAVLRLDNAMTYSLKIKNEVNNYVVQLIREQIEINKHAILTHPMNLRSSSIFHSPLPQIHSQQPEAENLIYSSSTPLQVQHDQCASFEAPSKSHLEPIPFPVSSIEETPTANDIRHPSPLPRSCSNTVMKLPTPRRKLDSNGLFSDAYLNADIIPNPSIESTISIDRDNNTNSRGSSMKQYGIGEATDSRTSNSERPSSSSSRLGIRSRSITPRQKIEYSHVDNDDRTNEMLSRDKDSLQPQPSVDTTITSSTQATTTGTKTNSNNSTNSVLPKLMTSISLTPRRGSPSFGNLASHSMQQTNSFKLIHDKSPISSPFTFSKDFLTPEQHPSNIARTDSINNAMLTSPNMPLSPLLLATNQTVKSPTPSIKDYDILKPISKGAYGSVYLARKKLTGDYFAIKVLRKSDMIAKNQVTNVKSERAIMMVQSDKPYVARLFASFQNKDNLFLVMEYLPGGDLATLIKMMGYLPDQWAKQYLTEIVVGVNDMHQNGIIHHDLKPENLLIDNAGHVKLTDFGLSRAGLIRRHKFVPHKSSLSISSTLPIDNPANNFTMNNNNSNHSQLSTPDSFTSDHKQYNRSKKSSLGQQYEHSEYSSTSNSHSMTPTPSTNTVVYPSYYRGKDRSHGSSNIDLPASLRRSESQLSFSLLDISRSSTPPLANPTNSNANNIMRRKSLTENKSFSNDLLSSDAIAATNTNINSNNNISLSPAPSDLALFYPDDSKQNKKFFGTPDYLAPETIEGKGEDNKQCDWWSVGCIFFELLLGYPPFHAETPDAVFKKILSGVIQWPEFKNEEEEREFLTPEAKDLIEKLLVVDPAKRLGAKGIQEIKDHPYFKNVDWDHVYDEEASFVPTIDNPEDTDYFDLRGAELQDFGDDIENDNANILFGKHGINTDVSELSAANLSPPLNHKNILSRKLSMSNTTNRSSNNSNSSVHDFGAHTPVNKLSIASVLESVPQETGYITPNGTGTTTTSAKNSPNLKNLSLAIPPHMRDRRSSKLNDSQTEFGSFNFRNLSALDKANKDAINRLKSEHFSEQPGVHRRTSSASLMGSSSDGSVSTPGSNASNTTSGGKLKIHKPTISGSPSTFGTFPKTFLRSDSFSTRSYSPERSISIDSSTLSRKGSIIGDNQQTTANSSDSPTMTKFKSPLSPANTTTVSSYFSRQRVLSKSFSQRTNSSDLSAEESDRLQAISRVNSLRNRRRSGRKSSSTSEIGYHMDVLVCEPIPIHRYRVTKDLENLGCTVVSVGAGDELVSRATSGVSFDLIMTALKLPKLGAIDIVQLLKQTNGANSTTPIVAITNYFQEAATSRVFDDVLEKPVKLDELKKLVAKYALKKSQEDEEHTILSDSDETH
partner: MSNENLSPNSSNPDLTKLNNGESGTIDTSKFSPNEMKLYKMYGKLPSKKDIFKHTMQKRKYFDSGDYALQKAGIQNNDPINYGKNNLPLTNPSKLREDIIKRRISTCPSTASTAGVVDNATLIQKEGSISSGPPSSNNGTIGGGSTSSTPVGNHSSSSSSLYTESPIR
B2: Serine/threonine-protein kinase RIM15 (Saccharomyces cerevisiae), P43565 (parent)
chain: B1 chain
partner: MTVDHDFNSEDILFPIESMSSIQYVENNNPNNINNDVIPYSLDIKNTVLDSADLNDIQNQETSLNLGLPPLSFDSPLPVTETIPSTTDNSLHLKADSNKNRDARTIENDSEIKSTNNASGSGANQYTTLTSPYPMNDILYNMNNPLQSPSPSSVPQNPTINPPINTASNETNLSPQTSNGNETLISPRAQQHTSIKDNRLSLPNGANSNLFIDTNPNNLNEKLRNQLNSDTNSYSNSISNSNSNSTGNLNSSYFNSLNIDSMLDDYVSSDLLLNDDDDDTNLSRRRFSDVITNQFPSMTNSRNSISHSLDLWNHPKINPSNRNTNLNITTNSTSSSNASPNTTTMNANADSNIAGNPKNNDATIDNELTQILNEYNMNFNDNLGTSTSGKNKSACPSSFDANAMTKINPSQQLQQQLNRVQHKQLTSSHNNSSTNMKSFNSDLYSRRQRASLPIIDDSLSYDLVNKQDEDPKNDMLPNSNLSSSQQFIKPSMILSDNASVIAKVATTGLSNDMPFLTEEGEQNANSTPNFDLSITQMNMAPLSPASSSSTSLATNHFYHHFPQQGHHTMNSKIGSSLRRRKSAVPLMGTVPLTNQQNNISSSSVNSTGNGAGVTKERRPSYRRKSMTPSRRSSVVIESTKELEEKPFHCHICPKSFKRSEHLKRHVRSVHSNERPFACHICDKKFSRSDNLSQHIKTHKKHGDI
B3: Serine/threonine-protein kinase RIM15 (Saccharomyces cerevisiae), P43565 (parent)
chain: B1 chain

Variants of: B1
Conditions: with igo1_yeast IGO1, P53897

| effect of a mutation on the interaction | Variant |
| --- | --- |
| disrupting interaction | K823Y;C1176Y |

Variants of: B2
Conditions: with msn2_yeast MSN2, P33748

| effect of a mutation on the interaction | Variant |
| --- | --- |
| disrupting interaction | K823Y;C1176Y |

Variants of: B3
Conditions: with hsf_yeast HSF1, P10961
hsf_yeast HSF1, P10961, sequence (P10961 whole entry): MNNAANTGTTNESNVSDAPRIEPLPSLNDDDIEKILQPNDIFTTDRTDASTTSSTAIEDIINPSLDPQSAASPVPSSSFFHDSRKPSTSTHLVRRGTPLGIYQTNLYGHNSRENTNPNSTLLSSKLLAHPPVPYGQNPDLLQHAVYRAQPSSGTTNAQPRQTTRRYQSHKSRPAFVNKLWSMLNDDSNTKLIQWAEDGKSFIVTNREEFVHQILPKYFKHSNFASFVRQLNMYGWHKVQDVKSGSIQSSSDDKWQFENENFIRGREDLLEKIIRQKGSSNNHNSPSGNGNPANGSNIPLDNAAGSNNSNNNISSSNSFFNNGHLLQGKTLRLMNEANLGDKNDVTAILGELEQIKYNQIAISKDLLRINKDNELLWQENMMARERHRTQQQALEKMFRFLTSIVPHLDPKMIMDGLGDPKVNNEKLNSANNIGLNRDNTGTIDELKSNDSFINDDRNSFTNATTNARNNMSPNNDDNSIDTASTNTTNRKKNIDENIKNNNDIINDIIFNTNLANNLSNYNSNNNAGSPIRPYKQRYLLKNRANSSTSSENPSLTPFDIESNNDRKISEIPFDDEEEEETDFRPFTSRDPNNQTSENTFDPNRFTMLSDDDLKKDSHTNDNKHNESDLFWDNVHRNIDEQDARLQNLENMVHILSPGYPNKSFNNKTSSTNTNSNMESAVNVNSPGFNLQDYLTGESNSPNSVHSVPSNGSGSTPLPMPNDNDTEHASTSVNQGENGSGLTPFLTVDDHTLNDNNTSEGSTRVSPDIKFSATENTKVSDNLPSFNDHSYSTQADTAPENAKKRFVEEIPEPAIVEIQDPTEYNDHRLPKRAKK

| effect of a mutation on the interaction | Variant |
| --- | --- |
| disrupting interaction | K823Y;C1176Y |
